# T1: human CD19 exon1-3-his protein (human, UniProt P15391 20-186, limits assumed)
# T1 construct: made in HEK293E cells; also called membrane-distal end; not shown: His tag
# T1 sequence (looked up): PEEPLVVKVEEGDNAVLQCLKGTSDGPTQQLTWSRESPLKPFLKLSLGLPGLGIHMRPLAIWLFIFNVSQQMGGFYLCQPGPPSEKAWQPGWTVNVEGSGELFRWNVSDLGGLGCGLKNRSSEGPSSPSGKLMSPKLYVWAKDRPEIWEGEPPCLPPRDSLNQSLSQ
# T2: Human CD19-his protein (human, UniProt P15391 20-291)
# T2 construct: bought protein; also called human CD19 protein; recombinant human CD19-His; not shown: His tag
# T2 sequence (looked up): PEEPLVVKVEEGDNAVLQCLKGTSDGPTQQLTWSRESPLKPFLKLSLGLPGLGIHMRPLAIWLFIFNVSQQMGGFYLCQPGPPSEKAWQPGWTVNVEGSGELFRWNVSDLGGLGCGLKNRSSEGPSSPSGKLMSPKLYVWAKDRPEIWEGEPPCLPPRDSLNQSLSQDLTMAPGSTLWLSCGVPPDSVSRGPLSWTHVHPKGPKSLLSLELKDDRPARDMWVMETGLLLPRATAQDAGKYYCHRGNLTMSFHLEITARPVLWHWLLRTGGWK
# T3: murine CD19 protein (murine, UniProt P25918 17-287, limits assumed)
# T3 construct: bought protein; also called commercial murine CD19
# T3 sequence (looked up): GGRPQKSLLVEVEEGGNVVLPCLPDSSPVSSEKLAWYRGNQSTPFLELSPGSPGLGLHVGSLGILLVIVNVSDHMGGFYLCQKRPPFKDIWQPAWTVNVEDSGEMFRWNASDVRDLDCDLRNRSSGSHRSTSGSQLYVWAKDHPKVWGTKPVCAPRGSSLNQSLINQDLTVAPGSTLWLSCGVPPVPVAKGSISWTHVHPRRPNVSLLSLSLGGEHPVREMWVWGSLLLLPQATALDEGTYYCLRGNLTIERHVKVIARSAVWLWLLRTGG
# What was measured:
# [1] = target: T1, human CD19 exon1-3-his protein; experiment: ELISA, coated at 2 ug/mL
# Experimental: (§1) Human CD19-his protein (purchased from ACROBiosystems, catalog number: CD9-H52H2) was diluted with PBS to a final concentration of 4 μg/mL, and then added to a 96-well ELISA plate at 100 μl/well. The plate was sealed with a plastic film and incubated overnight at 4° C., the plate was washed 2 times with PBS the next day, and then a blocking solution [PBS+2% (w/w) BSA] was added for blocking at room temperature for 2 h. The blocking solution was poured off, and 100 nM gradiently diluted CD19 chimeric antibody or control antibody was added at 50 μl/well. After incubation at 37° C. for 2 h, the plate was washed 3 times with PBS. […] TMB substrate was added at 50 μl/well, and incubated at room temperature for 10 min, and then a stop solution (1.0 N HCl) was added at 50 μl/well. The OD450 nm values were read by an ELISA microplate reader (Multimode Plate Reader, EnSight, purchased from Perkin Elmer).
# CD19 protein contains 4 exons in the extracellular region, in which exons 1-3 are located at the membrane-distal end and exon 4 is located at the membrane-proximal end. […] To identify the distribution of antigen binding epitopes of the chimeric antibodies, human CD19 exon 1-3-His (membrane-distal end) was used to coat at 2 μg/mL according to the ELISA method in example 5.1.
# Human CD19-his protein [2] = target: T2, Human CD19-his protein; experiment: ELISA, antibody at 100 nM
# Human CD19-his protein [3] = target: T2, Human CD19-his protein; experiment: ELISA, antibody at 10 nM
# Human CD19-his protein [4] = target: T2, Human CD19-his protein; experiment: ELISA, antibody at 1.00 nM
# murine CD19 protein = target: T3, murine CD19 protein; experiment: ELISA, coated murine CD19
# Summary of the method: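 Plates coated overnight at 4° C with recombinant murine or monkey CD19 and blocked with 2% BSA. Chimeric antibodies, serially diluted from 100 nM, bound for 2 h at 37° C. TMB development for 10 min with OD450 read-out.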
# Human CD19-his protein [5] = target: T2, Human CD19-his protein; experiment: ELISA, antibody at 0.0001 nM
# Human CD19-his protein [6] = target: T2, Human CD19-his protein; experiment: ELISA on coated human CD19-His
# Experimental: as §1
# Human CD19-his protein [7] = target: T2, Human CD19-his protein; experiment: ELISA, antibody at 0.001 nM
# Human CD19-his protein [8] = target: T2, Human CD19-his protein; experiment: ELISA, antibody at 0.01 nM
# Human CD19-his protein [9] = target: T2, Human CD19-his protein; experiment: ELISA, antibody at 0.10 nM
Binder,binding result [1],OD450 (Human CD19-his protein [2]),OD450 (Human CD19-his protein [3]),OD450 (Human CD19-his protein [4]),binding result (murine CD19 protein),OD450 (Human CD19-his protein [5]),EC50 (read off the curve) (Human CD19-his protein [6]) [pM],OD450 (Human CD19-his protein [7]),OD450 (Human CD19-his protein [8]),OD450 (Human CD19-his protein [9])
"F4.4.6 (antibody, human IgG1, V domains shown, human-murine chimeric antibody, human IgG1) VH: QVQLQQSGAELARPGASVKLSCKASGYTFTSYWMQWVKQRPGQGLEWIGAIYPGDGDSRYTQKFKGKATLTADKSSSTAYMQLSSLASEDSAVYYCARSTTTVLGNNFEYWGQGTTLTVSS VL: QIVLTQSPAIMSALPGEKVTMTCSASSSVSSMHWYQQKSGTSPKRWIYDTSKLASGVPARFSGSGSGTSYSLTISSMEAEDAATYYCQQWSSNPWTFGGGTKLEIK",no binding,0.79,0.58,0.6,no binding,0.05,~100,0.06,0.1,0.37
"F4.107.12 (antibody, human IgG1, V domains shown, human-murine chimeric antibody, human IgG1) VH: EVQLQQSGPELVKPGASVKMSCKASGYTFTSYVLHWVRQKPGQGLEWIGYFNPYNDGTEYNEKFKGKAILTSDKSSSTAYMELNSLTSEDSAVYYCVGGTYYYGSSYPFAYWGQGTLVTVST VL: DVVMTQISLSLPVSLGDQASISCRSSQSLIHSNGNTYLQWYLQKPGQSPKLLIYKVSNRLSGVPDRFSGSGSGTDFTLKISRVEAEDLGVYFCSQSTHVPYTFGGGTKLEIK",no binding,1.77,1.75,1.93,no binding,0.05,~40,0.08,0.27,1.33
"F3.148.10 (antibody, human IgG1, V domains shown, human-murine chimeric antibody, human IgG1) VH: EVQLQQSGAELVRPGSSVTMSCKTSGYTFTNYGINWVKQRPGQGLEWIGYIFIGNDYTEYNEKFKGKATLTSDTSSSTAYMQLSSLTSEDSAIYFCTRFYSNYYGMDPWGQGTSVTVSS VL: not shown",–,3.01,2.94,2.66,no binding,0.05,~200,0.07,0.22,0.98
"F3.124.7 (antibody, human IgG1, V domains shown, human-murine chimeric antibody, human IgG1) VH: EVQLQQSGPVLVKPGASVKMSCKASGYTFTDYYMNWVKQRHGKSLEWIGISNPYNGGTSYNQKFKDKATLTVDKSSSTAYMELNSLTSEDSAVYYCAREGGTAQPTSGMDYWGQGTSVTVSS VL: NIMMTQSPSSLAVSAGEKVTMSCKSSQSVLYSSNQKNYLAWYQQKPGQSPKLLIYWASTRESGVPDRFTGSGSGTDFTLTISSVQPEDPAVYYCHQYRSSYTFGGGTKLEIK",–,2.75,2.63,2.6,no binding,0.08,~30,0.18,0.81,2.08

# The remaining lines, values ahead:
binding result [1],OD450 (Human CD19-his protein [2]),OD450 (Human CD19-his protein [3]),OD450 (Human CD19-his protein [4]),binding result (murine CD19 protein),OD450 (Human CD19-his protein [5]),EC50 (read off the curve) (Human CD19-his protein [6]) [pM],OD450 (Human CD19-his protein [7]),OD450 (Human CD19-his protein [8]),OD450 (Human CD19-his protein [9]),Binder
no binding,1.87,1.94,1.73,no binding,0.06,~70,0.08,0.23,1.09,"F4.78.1 (antibody, human IgG1, V domains shown, human-murine chimeric antibody, human IgG1) VH: QVQIQQSGAELARPGASVKLSCKASGYTFTNYWMQWIKQRPGQGLEWIGAIYPGDGDTRYTQKFKGKATLTADKSSSTAYMQLSSLASEDSAVYYCAREEVWSPYGMDYWGQGTSVTVSS VL: QIVLTQSPAIMSASPGEKVTITCSASSSVSYMGWFQQKPGTSPKLWIYSTSNLASGVPARFSGSGSGTSYSLTISRMEAEDAATYYCQQRSIYPLTFGAGTKLELK"
no binding,1.52,1.55,1.6,no binding,0.09,~80,0.18,0.24,0.85,"F4.82.11 (antibody, human IgG1, V domains shown, human-murine chimeric antibody, human IgG1) VH: QVTLKESGPGILQASQTLSLTCSFSGFSLSTFGIGVGWVRQPSGKGLEWLAHIWWNDNKFFNTTLKNRLTLSKDPSNNQVFLKIASVDTADTATYYCARSRSALITTGLYAMDYWGQGTSVTVSS VL: DIQMTQTPSSLSASLGDRVTISCRSSQDISNYVNWYQQKPDGTVKVLINYTSRLHSGVPSRFSGSGSGTDYSLTISNLEQEDIASYFCQQGFTLPYTFGGGTKLEIK"
